The record followed here is patent publication US20190276511A1 (BIONTECH RNA PHARMACEUTICALS, published 2019).

One assay concerns the target T1, 4-1BB-Fc (human, UniProt Q07011 24-186).
T1 construct: extracellular domain; hinge included for covalent assembly; also called 4-1BB receptor-Fc fusion protein; not shown: human Fc gamma 1 region including the hinge region
As to the kind of experiment: ELISA, coated receptor-Fc. (In general: An ELISA detects its analyte on a solid surface through an enzyme-linked reagent.)

Assay [1] addresses T2, CD27-Fc (human, UniProt P26842 20-191).
T2 construct: extracellular domain; hinge included for covalent assembly; also called CD27 receptor-Fc fusion protein; not shown: human Fc gamma 1 region including the hinge region
T2 sequence (looked up): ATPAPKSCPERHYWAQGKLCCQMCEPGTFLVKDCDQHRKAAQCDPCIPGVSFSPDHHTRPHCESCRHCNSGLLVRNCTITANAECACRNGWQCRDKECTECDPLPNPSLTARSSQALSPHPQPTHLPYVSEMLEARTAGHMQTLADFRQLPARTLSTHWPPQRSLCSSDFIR
In words: ELISA, coated receptor-Fc.

Assay [2] addresses T3, OX40-Fc (human, UniProt P43489 29-214).
T3 construct: extracellular domain; hinge included for covalent assembly; also called OX40 receptor-Fc fusion protein; not shown: human Fc gamma 1 region including the hinge region
T3 sequence (looked up): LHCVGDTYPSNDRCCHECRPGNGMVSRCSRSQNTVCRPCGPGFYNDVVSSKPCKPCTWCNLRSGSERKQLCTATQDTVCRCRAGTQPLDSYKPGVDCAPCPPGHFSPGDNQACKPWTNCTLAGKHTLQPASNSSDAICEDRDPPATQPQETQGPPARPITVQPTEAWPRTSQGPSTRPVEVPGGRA
As to the kind of experiment: ELISA, coated receptor-Fc.

Assay [3] deals with T4, CD40-Fc (human, UniProt P25942 21-193).
T4 construct: extracellular domain; hinge included for covalent assembly; also called CD40 receptor-Fc fusion protein; not shown: human Fc gamma 1 region including the hinge region
T4 sequence (P25942 21-193 limits assumed): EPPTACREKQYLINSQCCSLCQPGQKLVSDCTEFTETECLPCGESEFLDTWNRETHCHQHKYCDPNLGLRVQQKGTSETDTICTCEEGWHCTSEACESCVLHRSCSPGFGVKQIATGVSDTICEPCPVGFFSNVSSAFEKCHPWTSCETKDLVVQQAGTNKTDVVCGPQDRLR
As to the kind of experiment: ELISA, coated receptor-Fc.

The target of a further assay is 4-1BB receptor on cells (human, UniProt Q07011 24-255). As to the kind of experiment: cell-based or functional assay.
4-1BB receptor on cells, sequence (Q07011 24-255): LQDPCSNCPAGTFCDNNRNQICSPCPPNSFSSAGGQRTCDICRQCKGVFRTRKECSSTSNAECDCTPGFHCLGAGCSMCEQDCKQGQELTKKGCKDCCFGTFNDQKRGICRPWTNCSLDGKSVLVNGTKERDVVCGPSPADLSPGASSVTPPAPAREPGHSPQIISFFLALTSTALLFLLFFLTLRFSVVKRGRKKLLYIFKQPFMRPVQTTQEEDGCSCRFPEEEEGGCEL
Assay [4] deals with T4, CD40-Fc. As to the kind of experiment: ELISA, coated receptor-Fc. The source holds these as a separate data set.
The target in assay [5] is T2, CD27-Fc. In words: ELISA, coated receptor-Fc. This is another data set of the same source.
In the next assay the target is CD40 receptor on cells (human, UniProt P25942 21-277). As to the kind of experiment: cell-based or functional assay.
CD40 receptor on cells, sequence (P25942 21-277): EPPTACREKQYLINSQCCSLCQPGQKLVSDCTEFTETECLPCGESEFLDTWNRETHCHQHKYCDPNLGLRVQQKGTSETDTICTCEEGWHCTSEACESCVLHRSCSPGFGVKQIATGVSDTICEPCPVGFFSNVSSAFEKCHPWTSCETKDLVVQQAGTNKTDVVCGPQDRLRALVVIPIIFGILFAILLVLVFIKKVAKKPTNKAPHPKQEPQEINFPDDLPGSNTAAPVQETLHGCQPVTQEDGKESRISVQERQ
The target in assay [6] is T3, OX40-Fc. As to the kind of experiment: ELISA, coated receptor-Fc. This is another data set of the same source.
For a further assay, the target named is T5, OX40 receptor on cells (human, UniProt P43489 29-277).
T5 sequence (looked up): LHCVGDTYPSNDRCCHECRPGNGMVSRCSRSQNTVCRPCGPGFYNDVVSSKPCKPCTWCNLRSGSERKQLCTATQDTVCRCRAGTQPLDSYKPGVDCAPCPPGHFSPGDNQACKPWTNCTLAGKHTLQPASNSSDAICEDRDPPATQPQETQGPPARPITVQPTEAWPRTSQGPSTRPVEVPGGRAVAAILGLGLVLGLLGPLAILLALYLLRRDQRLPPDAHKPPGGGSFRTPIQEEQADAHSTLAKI
In words: cell-based or functional assay.

B1: scCD27L-sc4-1BBL (ligand)
chain: SLGWDVAELQLNHTGPQQDPRLYWQGGPALGRSFLHGPELDKGQLRIHRDGIYMVHIQVTLAICSSTTASRHHPTTLAVGICSPASRSISLLRLSFHQGCTIASQRLTPLARGDTLCTNLTGTLLPSRNTDETFFGVQWVRPGGGSGGGSLGWDVAELQLNHTGPQQDPRLYWQGGPALGRSFLHGPELDKGQLRIHRDGIYMVHIQVTLAICSSTTASRHHPTTLAVGICSPASRSISLLRLSFHQGCTIASQRLTPLARGDTLCTNLTGTLLPSRNTDETFFGVQWVRPGGGSGGGSLGWDVAELQLNHTGPQQDPRLYWQGGPALGRSFLHGPELDKGQLRIHRDGIYMVHIQVTLAICSSTTASRHHPTTLAVGICSPASRSISLLRLSFHQGCTIASQRLTPLARGDTLCTNLTGTLLPSRNTDETFFGVQWVRPGGGGSGGGTGGGGSREGPELSPDDPAGLLDLRQGMFAQLVAQNVLLIDGPLSWYSDPGLAGVSLTGGLSYKEDTKELVVAKAGVYYVFFQLELRRVVAGEGSGSVSLALHLQPLRSAAGAAALALTVDLPPASSEARNSAFGFQGRLLHLSAGQRLGVHLHTEARARHAWQLTQGATVLGLFRVTPEIPAGLPSPRSEGGGGSGGGGSGGGGSREGPELSPDDPAGLLDLRQGMFAQLVAQNVLLIDGPLSWYSDPGLAGVSLTGGLSYKEDTKELVVAKAGVYYVFFQLELRRVVAGEGSGSVSLALHLQPLRSAAGAAALALTVDLPPASSEARNSAFGFQGRLLHLSAGQRLGVHLHTEARARHAWQLTQGATVLGLFRVTPEIPAGLPSPRSEGGGGSGGGGSGGGGSREGPELSPDDPAGLLDLRQGMFAQLVAQNVLLIDGPLSWYSDPGLAGVSLTGGLSYKEDTKELVVAKAGVYYVFFQLELRRVVAGEGSGSVSLALHLQPLRSAAGAAALALTVDLPPASSEARNSAFGFQGRLLHLSAGQRLGVHLHTEARARHAWQLTQGATVLGLFRVTPEIPAGLPSPRSE
notes: scDuokine from HEK293; VH leader left out; also called single-chain Duokine scCD27L-sc4-1BBL; not shown: N-terminal FLAG tag
One may read the EC50 as the concentration at which the effect is half-maximal. The low end stands for higher potency in that assay, the high end for lower potency in that assay. Consider B1, for which the EC50 was determined as 4.57 nM with 4-1BB-Fc and 9.23 nM in the assay with CD27-Fc [1]. Also, the binding result in the assay with OX40-Fc [2] and in the assay with CD40-Fc [3] was “no binding (tested: 100 nM (FIG. 10))” in each case. The “Receptor activation (EC50, nM)” value in the assay with 4-1BB receptor on cells amounted to 1.5 nM.

B2: scCD40L-sc4-1BBL (ligand)
chain: GDQNPQIAAHVISEASSKTTSVLQWAEKGYYTMSNNLVTLENGKQLTVKRQGLYYIYAQVTFCSNREASSQAPFIASLCLKSPGRFERILLRAANTHSSAKPCGQQSIHLGGVFELQPGASVFVNVTDPSQVSHGTGFTSFGLLKLGGGSGGGGDQNPQIAAHVISEASSKTTSVLQWAEKGYYTMSNNLVTLENGKQLTVKRQGLYYIYAQVTFCSNREASSQAPFIASLCLKSPGRFERILLRAANTHSSAKPCGQQSIHLGGVFELQPGASVFVNVTDPSQVSHGTGFTSFGLLKLGGGSGGGGDQNPQIAAHVISEASSKTTSVLQWAEKGYYTMSNNLVTLENGKQLTVKRQGLYYIYAQVTFCSNREASSQAPFIASLCLKSPGRFERILLRAANTHSSAKPCGQQSIHLGGVFELQPGASVFVNVTDPSQVSHGTGFTSFGLLKLGGGGSGGGTGGGGSREGPELSPDDPAGLLDLRQGMFAQLVAQNVLLIDGPLSWYSDPGLAGVSLTGGLSYKEDTKELVVAKAGVYYVFFQLELRRVVAGEGSGSVSLALHLQPLRSAAGAAALALTVDLPPASSEARNSAFGFQGRLLHLSAGQRLGVHLHTEARARHAWQLTQGATVLGLFRVTPEIPAGLPSPRSEGGGGSGGGGSGGGGSREGPELSPDDPAGLLDLRQGMFAQLVAQNVLLIDGPLSWYSDPGLAGVSLTGGLSYKEDTKELVVAKAGVYYVFFQLELRRVVAGEGSGSVSLALHLQPLRSAAGAAALALTVDLPPASSEARNSAFGFQGRLLHLSAGQRLGVHLHTEARARHAWQLTQGATVLGLFRVTPEIPAGLPSPRSEGGGGSGGGGSGGGGSREGPELSPDDPAGLLDLRQGMFAQLVAQNVLLIDGPLSWYSDPGLAGVSLTGGLSYKEDTKELVVAKAGVYYVFFQLELRRVVAGEGSGSVSLALHLQPLRSAAGAAALALTVDLPPASSEARNSAFGFQGRLLHLSAGQRLGVHLHTEARARHAWQLTQGATVLGLFRVTPEIPAGLPSPRSE
notes: scDuokine from HEK293; VH leader left out; also called single-chain Duokine scCD40L-sc4-1BBL; not shown: N-terminal FLAG tag
As for B2, the EC50 with 4-1BB-Fc was found to be 3.17 nM; in the assay with CD40-Fc [4], 7.02 nM. Also, the binding result with OX40-Fc [2] and with CD27-Fc [5] was “no binding (tested: 100 nM (FIG. 10))” in each case. Moreover, the “Receptor activation (EC50, nM)” value with 4-1BB receptor on cells turned out to be 0.26 nM; with CD40 receptor on cells it was 5.23 nM.

B3: scOX40L-sc4-1BBL (ligand)
chain: QVSHRYPRIQSIKVQFTEYKKEKGFILTSQKEDEIMKVQNNSVIINCDGFYLISLKGYFSQEVNISLHYQKDEEPLFQLKKVRSVNSLMVASLTYKDKVYLNVTTDNTSLDDFHVNGGELILIHQNPGEFCVLGGGSGGGQVSHRYPRIQSIKVQFTEYKKEKGFILTSQKEDEIMKVQNNSVIINCDGFYLISLKGYFSQEVNISLHYQKDEEPLFQLKKVRSVNSLMVASLTYKDKVYLNVTTDNTSLDDFHVNGGELILIHQNPGEFCVLGGGSGGGQVSHRYPRIQSIKVQFTEYKKEKGFILTSQKEDEIMKVQNNSVIINCDGFYLISLKGYFSQEVNISLHYQKDEEPLFQLKKVRSVNSLMVASLTYKDKVYLNVTTDNTSLDDFHVNGGELILIHQNPGEFCVLGGGGSGGGTGGGGSREGPELSPDDPAGLLDLRQGMFAQLVAQNVLLIDGPLSWYSDPGLAGVSLTGGLSYKEDTKELVVAKAGVYYVFFQLELRRVVAGEGSGSVSLALHLQPLRSAAGAAALALTVDLPPASSEARNSAFGFQGRLLHLSAGQRLGVHLHTEARARHAWQLTQGATVLGLFRVTPEIPAGLPSPRSEGGGGSGGGGSGGGGSREGPELSPDDPAGLLDLRQGMFAQLVAQNVLLIDGPLSWYSDPGLAGVSLTGGLSYKEDTKELVVAKAGVYYVFFQLELRRVVAGEGSGSVSLALHLQPLRSAAGAAALALTVDLPPASSEARNSAFGFQGRLLHLSAGQRLGVHLHTEARARHAWQLTQGATVLGLFRVTPEIPAGLPSPRSEGGGGSGGGGSGGGGSREGPELSPDDPAGLLDLRQGMFAQLVAQNVLLIDGPLSWYSDPGLAGVSLTGGLSYKEDTKELVVAKAGVYYVFFQLELRRVVAGEGSGSVSLALHLQPLRSAAGAAALALTVDLPPASSEARNSAFGFQGRLLHLSAGQRLGVHLHTEARARHAWQLTQGATVLGLFRVTPEIPAGLPSPRSE
notes: scDuokine from HEK293; VH leader left out; also called single-chain Duokine scOX40L-sc4-1BBL; not shown: N-terminal FLAG tag
In the case of B3, the EC50 in the assay with OX40-Fc [6] was 347 nM; with 4-1BB-Fc, 4.61 nM. Also, the binding result in the assay with CD40-Fc [3] and with CD27-Fc [5] was “no binding (tested: 100 nM (FIG. 10))” in each case. Further, the “Receptor activation (EC50, nM)” value with OX40 receptor on cells amounted to 0.56 nM; with 4-1BB receptor on cells, 2.83 nM.
